# Source: paper PMC4508901 (The Journal of Cell Biology, 2015)
# B1: purified Egd2 (expressed in E. coli) (natural protein, S. cerevisiae, UniProt P38879 1-174, looked up)
# chain: MSAIPENANVTVLNKNEKKARELIGKLGLKQIPGIIRVTFRKKDNQIYAIEKPEVFRSAGGNYVVFGEAKVDNFTQKLAAAQQQAQASGIMPSNEDVATKSPEDIQADMQAAAEGSVNAAAEEDDEEGEVDAGDLNKDDIELVVQQTNVSKNQAIKALKAHNGDLVNAIMSLSK
# Molecular target: the molecule itself
# Test: cross-linking
protein,measurement,value
B1,stoichiometry N,2
